Assay results from article PMC3126750.

Tests used:
Ubp6 = Ubp6 (UniProt P43593); experiment: anti-Flag affinity purification of 26S proteasome, immunoblot densitometry; settings: no detergent in binding; normalized to Rpn11FLAG; parent: est. 100; read off a plot
Ddi1 = Ddi1 (UniProt P40087); experiment: as above; settings: no detergent in binding; normalized to Rpn11FLAG; parent: est. 100; read off a plot
Dsk2 = Dsk2 (UniProt P48510); experiment: as above; settings: no detergent in binding; normalized to Rpn11FLAG; parent: est. 100; read off a plot
UniProt P48510, sequence (P48510 whole entry, looked up): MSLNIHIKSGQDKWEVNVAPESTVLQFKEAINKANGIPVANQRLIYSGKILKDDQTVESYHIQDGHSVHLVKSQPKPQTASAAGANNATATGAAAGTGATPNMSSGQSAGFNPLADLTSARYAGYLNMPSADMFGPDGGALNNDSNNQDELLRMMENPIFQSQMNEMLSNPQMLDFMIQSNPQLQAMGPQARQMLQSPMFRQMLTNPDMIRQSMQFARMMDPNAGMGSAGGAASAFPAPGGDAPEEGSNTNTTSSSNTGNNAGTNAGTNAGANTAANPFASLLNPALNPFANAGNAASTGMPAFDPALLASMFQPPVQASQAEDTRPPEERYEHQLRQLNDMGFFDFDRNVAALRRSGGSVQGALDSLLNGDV

Rad23 = Rad23 (UniProt P32628); experiment: as above; settings: no detergent in binding; normalized to Rpn11FLAG; parent: est. 100; read off a plot
[1] = target: 26S proteasome from rpn13Δ cells (Rpn11-Flag) (S. cerevisiae) (UniProt P38764); experiment: affinity purification with mass spectrometry; SILAC: rpn13Δ cells heavy, rpn13Δ rpn1-D517A cells light, mixed 1:1 before lysis; proteasomes purified on anti-Flag resin, eluted in 8 M urea
UniProt P38764, sequence (P38764 whole entry, looked up, stated change not applied): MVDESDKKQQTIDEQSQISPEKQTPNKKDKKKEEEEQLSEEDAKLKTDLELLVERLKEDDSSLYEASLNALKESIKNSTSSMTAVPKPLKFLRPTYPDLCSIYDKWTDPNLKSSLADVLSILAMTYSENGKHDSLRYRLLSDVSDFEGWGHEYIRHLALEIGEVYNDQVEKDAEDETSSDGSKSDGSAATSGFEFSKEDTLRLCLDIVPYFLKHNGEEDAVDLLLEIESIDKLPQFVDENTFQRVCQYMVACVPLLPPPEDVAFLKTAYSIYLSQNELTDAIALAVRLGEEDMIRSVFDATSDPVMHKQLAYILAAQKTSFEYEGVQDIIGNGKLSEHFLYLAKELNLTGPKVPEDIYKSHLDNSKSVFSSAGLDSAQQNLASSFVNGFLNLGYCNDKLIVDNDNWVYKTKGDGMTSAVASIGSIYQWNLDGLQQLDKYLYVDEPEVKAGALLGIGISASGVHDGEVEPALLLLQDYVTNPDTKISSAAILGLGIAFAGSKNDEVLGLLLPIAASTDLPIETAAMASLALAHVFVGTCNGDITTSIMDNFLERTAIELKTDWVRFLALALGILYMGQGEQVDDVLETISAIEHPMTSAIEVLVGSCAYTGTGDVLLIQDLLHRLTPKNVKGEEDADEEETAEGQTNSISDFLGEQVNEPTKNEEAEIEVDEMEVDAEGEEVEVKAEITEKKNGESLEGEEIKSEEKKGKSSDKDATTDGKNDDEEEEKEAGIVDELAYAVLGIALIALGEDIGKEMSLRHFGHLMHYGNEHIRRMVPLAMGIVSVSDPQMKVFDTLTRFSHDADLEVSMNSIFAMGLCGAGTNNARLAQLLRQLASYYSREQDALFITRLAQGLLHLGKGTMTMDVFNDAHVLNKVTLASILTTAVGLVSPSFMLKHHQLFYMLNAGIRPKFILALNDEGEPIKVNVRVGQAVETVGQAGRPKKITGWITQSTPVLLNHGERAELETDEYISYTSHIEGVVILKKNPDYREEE

UniProt P40087, sequence (P40087 whole entry, looked up): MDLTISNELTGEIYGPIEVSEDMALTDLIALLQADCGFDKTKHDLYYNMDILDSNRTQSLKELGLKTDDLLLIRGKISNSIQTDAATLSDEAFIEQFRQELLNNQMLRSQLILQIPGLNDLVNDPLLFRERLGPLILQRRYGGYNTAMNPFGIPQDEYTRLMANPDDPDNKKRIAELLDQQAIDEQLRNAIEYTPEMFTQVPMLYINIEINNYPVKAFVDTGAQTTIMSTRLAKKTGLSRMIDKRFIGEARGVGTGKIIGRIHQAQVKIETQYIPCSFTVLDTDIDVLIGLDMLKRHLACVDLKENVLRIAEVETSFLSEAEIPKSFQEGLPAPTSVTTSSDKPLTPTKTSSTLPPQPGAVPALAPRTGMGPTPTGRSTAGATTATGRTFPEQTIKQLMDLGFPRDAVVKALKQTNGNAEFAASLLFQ
Ubp6, sequence (P43593 whole entry): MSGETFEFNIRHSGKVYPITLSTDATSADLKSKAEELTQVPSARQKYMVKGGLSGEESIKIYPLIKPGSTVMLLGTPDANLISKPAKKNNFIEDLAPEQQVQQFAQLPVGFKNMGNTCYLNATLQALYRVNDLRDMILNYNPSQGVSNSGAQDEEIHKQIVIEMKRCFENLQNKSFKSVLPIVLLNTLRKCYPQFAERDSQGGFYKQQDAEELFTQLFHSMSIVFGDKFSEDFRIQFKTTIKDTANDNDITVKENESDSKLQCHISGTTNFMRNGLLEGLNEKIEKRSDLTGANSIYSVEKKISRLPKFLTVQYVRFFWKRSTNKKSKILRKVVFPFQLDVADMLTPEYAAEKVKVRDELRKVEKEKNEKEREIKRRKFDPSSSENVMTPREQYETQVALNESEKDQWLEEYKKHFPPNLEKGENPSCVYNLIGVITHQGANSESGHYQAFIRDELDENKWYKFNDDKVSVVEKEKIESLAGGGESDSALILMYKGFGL

Molecule	percent of parent (% Protein Relative to WT) (Ubp6)	percent of parent (% Protein Relative to WT) (Ddi1)	percent of parent (% Protein Relative to WT) (Dsk2)	percent of parent (% Protein Relative to WT) (Rad23)	SILAC H/L ratio (rpn13Δ proteasomes, heavy, over rpn13Δ rpn1-D517A proteasomes, light) [1]
26S proteasome from rpn13Δ cells (Rpn11-Flag) (from UniProt P38764;P43588) D517A	110	29	61	76	–
26S proteasome from rpn13Δ cells (Rpn11-Flag) (from UniProt P38764;P43588) K484A	110	80	86	95	–
Ubp6 (from UniProt P43593 1-499) (enzyme)	–	–	–	–	0.98
Rad23 (natural protein) MVSLTFKNFKKEKVPLDLEPSNTILETKTKLAQSISCEESQIKLIYSGKVLQDSKTVSECGLKDGDQVVFMVSQKKSTKTKVTEPPIAPESATTPGRENSTEASPSTDASAAPAATAPEGSQPQEEQTATTERTESASTPGFVVGTERNETIERIMEMGYQREEVERALRAAFNNPDRAVEYLLMGIPENLRQPEPQQQTAAAAEQPSTAATTAEQPAEDDLFAQAAQGGNASSGALGTTGGATDAAQGGPPGSIGLTVEDLLSLRQVVSGNPEALAPLLENISARYPQLREHIMANPEVFVSMLLEAVGDNMQDVMEGADDMVEGEDIEVTGEAAAAGLGQGEGEGSFQVDYTPEDDQAISRLCELGFERDLVIQVYFACDKNEEAAANILFSDHAD	–	–	–	–	0.9
